We go through two molecules from paper PMC9158529, “AfCHIL, a Type IV Chalcone Isomerase, Enhances the Biosynthesis of Naringenin in Metabolic Engineering” (Frontiers in Plant Science, 2022).

One assay has as its system T1, AfCHS.
T1 construct: gene CHS; complete ORF in pET-15b, His6-tagged, E. coli BL21 (DE3), His-tag purified
The assay is described as follows: HPLC at […] nm, Michaelis-Menten fit. To be noted: 200 uM malonyl-CoA, 20-200 uM p-coumaroyl-CoA, HEPES-KOH pH 7.0, 2 mM DTT, 35 °C, 30 min. It counts as biochemical, Allium fistulosum.

Another assay relates to T2, AfCHS/AfCHIL.
T2 construct: gene CHS; complete ORFs in pET-15b, His6-tagged, E. coli BL21 (DE3), combined in the assay; legend calls it AfCHIL/AfCHS1; with Chalcone isomerase-like protein (type IV chalcone isomerase)
The assay is described as follows: HPLC at […] nm, Michaelis-Menten fit. The class given is biochemical, Allium fistulosum. To be noted: AfCHIL present; 200 uM malonyl-CoA, 20-200 uM p-coumaroyl-CoA.

Assay [1] addresses AfCHS, chalcone synthase of Allium fistulosum (yeast two-hybrid fusion) (Allium fistulosum).
Assay [2] has the same target. This is another data set of the same source.

Regarding `CC(C)(COP(=O)(O)OP(=O)(O)OC[C@H]1O[C@@H](n2cnc3c(N)ncnc32)[C@H](O)[C@@H]1OP(=O)(O)O)[C@@H](O)C(=O)NCCC(=O)NCCSC(=O)/C=C/c1ccc(O)cc1` [p-coumaroyl-CoA], the Km – broadly, the concentration of substrate that gives half-maximal velocity – in the assay with AfCHS was found to be 55.1 ± 12.5 µM; with AfCHS/AfCHIL, 53.9 ± 10 µM.

With “AfCHIL, type IV chalcone isomerase of Allium fistulosum (yeast two-hybrid fusion) (natural protein)”, in assay [1], the by-product CTAL produced by purified AfCHS in vitro with AfCHIL present, against AfCHS alone amounted to 30 % decrease and the naringenin produced by purified AfCHS in vitro with AfCHIL present, against AfCHS alone came out at 2.2 times. Further, the Kcat of purified His6-AfCHS (p-coumaroyl-CoA and malonyl-CoA as substrates) in the presence of purified His6-AfCHIL, against AfCHS alone in assay [2] came out at 2.7 times.
